# Data reported in patent US20230406950A1 (LYVGEN BIOPHARMA, published 2023).
# Legend:
# [1] = target: T1, human CD137 expressed on cells (human, UniProt Q07011 24-255); assay: FACS on CHO cells expressing human CD137 (MFI)
# T1 construct: whole, on cells; also called 4-1BB; TNFRSF9
# Method: (§1) Anti-GITR/CD137 bi-specific antibodies were analyzed by FACS for their binding properties to human GITR and/or human CD137 expressed on CHO cells. Briefly, cultured cells were harvested, counted and cell viability was evaluated using the Trypan Blue exclusion method. Viable cells were then adjusted to 2×10⁶ cells per mL in PBS containing 2% BSA. 100 μL of this cell suspension were further aliquoted per well into a V-bottom 96-well plate. […] After incubation for 2 hours at 4° C., cells were centrifuged (3 min, 1000× g), washed with 250 μL/well BSA-containing FACS Stain Buffer, resuspended and incubated for an additional 1 hour at 4° C. with 100 μL/well fluorochrome-conjugated anti-IgG antibody for detection of the bisepecific antibody. Cells were then washed with 250 μL/well BSA-containing FACS Stain Buffer, resuspended in 100 μL/well FACS Stain Buffer, acquired and analyzed using a FACS machine. Binding of the bispecific antibodies to human GITR or human CD137 expressing CHO cells were evaluated and the mean fluorescence intensity is plotted in histograms or dot plots.
# [2] = target: T2, human PD-L1 expressed on cells (human, UniProt Q9NZQ7 19-290); assay: flow cytometry (FACS), MFI, CHO cells expressing human PD-L1
# T2 construct: whole, on cells; also called human PD-L1 expressed on CHO cells; Raji-PD-L1 cells
# T2 sequence (Q9NZQ7 19-290): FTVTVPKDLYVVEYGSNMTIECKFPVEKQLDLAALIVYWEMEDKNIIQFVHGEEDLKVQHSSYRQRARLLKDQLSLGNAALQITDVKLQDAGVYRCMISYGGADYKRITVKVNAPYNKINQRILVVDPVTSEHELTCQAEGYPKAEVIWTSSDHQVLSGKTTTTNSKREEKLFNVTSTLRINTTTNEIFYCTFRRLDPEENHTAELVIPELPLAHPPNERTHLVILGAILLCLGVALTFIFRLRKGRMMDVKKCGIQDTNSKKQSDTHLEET
# Method: as §1, with “Exemplary anti-PD-1/CD137” for “Anti-GITR/CD137”, “PD-1” for “GITR”
# Exemplary anti-PD-L1/CD137 bi-specific antibodies were analyzed by FACS for their binding properties to human PD-L1 or human CD137 expressed on CHO cells, following the procedures disclosed in Examples 1 above.
# [3] = target: T3, ECD portion of human CD137 protein (mouse IgG2a Fc tag) (human, UniProt Q07011 24-186); assay: bridging ELISA: human CD137 ECD (mouse IgG2a Fc tag) coated, antibody titrated, then human PD-L1 ECD (His tag), HRP anti-His detection; A450-A620
# T3 construct: extracellular domain; also called recombinant human CD137; not shown: mouse IgG2a Fc tag
# Method: (§2) Exemplary anti-PD-L1/CD137 bi-specific antibodies were analyzed by ELISA for their simultaneous binding to recombinant human PD-L1 and human CD137. Briefly, the ECD portion of human CD137 protein (mouse IgG2a Fc tag) was diluted and coated onto an ELISA plate with a volume of 100 μL/well by incubation at 4° C. overnight. The next day, the plate was blocked with PBST-BSA buffer, then serially diluted samples of anti-PD-L1/CD137 bi-specific antibodies were pipetted into appropriate wells at 50 μL/well, and the plate was incubated for 1 h followed by Washing. Human PD-L1 ECD fragment (His tag) was added into the plate at 50 μL/well. After 1-hour incubation at room temperature, HRP-conjugated anti-His tag antibody was added into the plate at 100 μL/well and […]. The plate was incubated for 1 hour at room temperature followed by washing. TMB substrate solution was added at 100 μL/well and the color development was stopped by adding 100 uL/well Stop Solution (2N H₂SO₄). Absorbance at 450 nm and 620 nm was read by Tecan F200 Pro plate reader. GraphPad 7.0, “[Agonist] vs. response—Variable slope (four parameters)” was used to plot the binding data and calculate binding EC50 values.
# [4] = target: T4, Human PD-L1 ECD fragment (His tag) (human, UniProt Q9NZQ7 19-238); assay: as above
# T4 construct: extracellular domain; also called recombinant human PD-L1; not shown: His tag
# T4 sequence (Q9NZQ7 19-238): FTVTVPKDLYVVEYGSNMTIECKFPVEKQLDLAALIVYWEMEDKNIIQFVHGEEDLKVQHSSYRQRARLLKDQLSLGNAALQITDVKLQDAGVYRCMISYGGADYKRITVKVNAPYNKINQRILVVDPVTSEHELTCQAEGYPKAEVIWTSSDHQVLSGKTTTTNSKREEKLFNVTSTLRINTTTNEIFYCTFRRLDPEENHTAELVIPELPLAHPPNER
# Method: as §2
# T1 sequence (Q07011 24-255): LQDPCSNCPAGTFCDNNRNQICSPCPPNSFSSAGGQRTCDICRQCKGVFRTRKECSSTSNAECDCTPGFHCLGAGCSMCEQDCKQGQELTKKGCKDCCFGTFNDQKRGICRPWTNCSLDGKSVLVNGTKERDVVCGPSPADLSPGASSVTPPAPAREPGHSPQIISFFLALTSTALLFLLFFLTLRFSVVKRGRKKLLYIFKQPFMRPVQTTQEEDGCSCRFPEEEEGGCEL
Binder,EC50 (read off the curve) [1] [mg/L],binding result [2],EC50 (read off the curve) [3] [mg/L],binding result [4]
"Ly759 (bispecific antibody, human IgG1, kappa, Anti-GITR/CD137: TM685-derived heavy chain fused to Ly1630 scFv (VH-VL); TM685 light chain) heavy: QVQLQESGPGLVKPSETLSLTCTVSGFSLTSYNVHWIRQPPGKGLEWIGVIWSGVRTDYNSVLKPRVTISVDTSKNQFSLKLSSVTAADTAVYYCARGTYDDNYHDVMDAWGQGTLVTVSSASTKGPSVFPLAPSSKSTSGGTAALGCLVKDYFPEPVTVSWNSGALTSGVHTFPAVLQSSGLYSLSSVVTVPSSSLGTQTYICNVNHKPSNTKVDKKVEPKSCDKTHTCPPCPAPELLGPSVFLFPPKPKDTLMISRTPEVTCVVVDVSHEDPEVKFNWYVDGVEVHNAKTKPREEQYNSTYRVVSVLTVLHQDWLNGKEYKCKVSNKALPAPIEKTISKAKGQPREPQVYTLPPSREEMTKNQVSLTCLVKGFYPSDIAVEWESNGQPENNYKTTPPVLDSDGSFFLYSKLTVDKSRWQQGNVFSCSVMHEALHNHYTQKSLSLSPGGGGGSGGGGSGGGGSGGGGSQVQLVQSGAEVKKPGASVKVSCKASGYTFAGFEMHWVRQAPGQGLEWMGAIDPKTGGTDYNQKFKDRVTMTRDTSISTAYMELSRLRSDDTAVYYCARDLGYFDVWGQGTLVTVSSGGGGSGGGGSGGGGSGGGGSDIQMTQSPSSLSASVGDRVTITCRASQDIRSNLNWYQQKPGGAVKLLIYYTSRLHSGVPSRFSGSGSGTDYTLTISSLQPEDFATYFCQQSEKLPRTFGGGTKVEIR light: EIVLTQSPATLSLSPGERATLSCRASKSVRTGMHWYQQKPGQAPRLLIYGASNLESGIPARFSGSGSGTDFTLTISSLEPEDFAVYYCQQSWNHFTFGQGTKLEIKRTVAAPSVFIFPPSDEQLKSGTASVVCLLNNFYPREAKVQWKVDNALQSGNSQESVTEQDSKDSTYSLSSTLTLSKADYEKHKVYACEVTHQGLSSPVTKSFNRGEC",~0.6,,,
"Ly757 (bispecific antibody, human IgG1, kappa, Anti-GITR/CD137: Ly1630 heavy chain; Ly1630 light chain fused to TM685 scFv (VH-VL)) heavy: QVQLVQSGAEVKKPGASVKVSCKASGYTFAGFEMHWVRQAPGQGLEWMGAIDPKTGGTDYNQKFKDRVTMTRDTSISTAYMELSRLRSDDTAVYYCARDLGYFDVWGQGTLVTVSSASTKGPSVFPLAPSSKSTSGGTAALGCLVKDYFPEPVTVSWNSGALTSGVHTFPAVLQSSGLYSLSSVVTVPSSSLGTQTYICNVNHKPSNTKVDKKVEPKSCDKTHTCPPCPAPELLGPSVFLFPPKPKDTLMISRTPEVTCVVVDVSHEDPEVKFNWYVDGVEVHNAKTKPREEQYNSTYRVVSVLTVLHQDWLNGKEYKCKVSNKALPAPIEKTISKAKGQPREPQVYTLPPSREEMTKNQVSLTCLVKGFYPSDIAVEWESNGQPENNYKTTPPVLDSDGSFFLYSKLTVDKSRWQQGNVFSCSVMHEALHNHYTQKSLSLSPGK light: DIQMTQSPSSLSASVGDRVTITCRASQDIRSNLNWYQQKPGGAVKLLIYYTSRLHSGVPSRFSGSGSGTDYTLTISSLQPEDFATYFCQQSEKLPRTFGGGTKVEIRRTVAAPSVFIFPPSDEQLKSGTASVVCLLNNFYPREAKVQWKVDNALQSGNSQESVTEQDSKDSTYSLSSTLTLSKADYEKHKVYACEVTHQGLSSPVTKSFNRGECGGGGSGGGGSGGGGSGGGGSQVQLQESGPGLVKPSETLSLTCTVSGFSLTSYNVHWIRQPPGKGLEWIGVIWSGVRTDYNSVLKPRVTISVDTSKNQFSLKLSSVTAADTAVYYCARGTYDDNYHDVMDAWGQGTLVTVSSGGGGSGGGGSGGGGSGGGGSEIVLTQSPATLSLSPGERATLSCRASKSVRTGMHWYQQKPGQAPRLLIYGASNLESGIPARFSGSGSGTDFTLTISSLEPEDFAVYYCQQSWNHFTFGQGTKLEIK",~0.2,,,
"Ly346 (bispecific antibody, human IgG1, kappa, Anti-PD-L1/CD137: Ly076 heavy chain fused to Ly1630 scFv (VH-VL); Ly076 light chain) heavy: QVQLVQSGAEVKKPGASVKVSCKASGYTFTDFWMSWVRQAPGQGLEWMGQIYPNTGTTHSNEKFKGRVTMTRDTSTSTVYMELSSLRSEDTAVYYCARSYHISTTPNWFAYWGQGTLVTVSSASTKGPSVFPLAPSSKSTSGGTAALGCLVKDYFPEPVTVSWNSGALTSGVHTFPAVLQSSGLYSLSSVVTVPSSSLGTQTYICNVNHKPSNTKVDKKVEPKSCDKTHTCPPCPAPELLGPSVFLFPPKPKDTLMISRTPEVTCVVVDVSHEDPEVKFNWYVDGVEVHNAKTKPREEQYNSTYRVVSVLTVLHQDWLNGKEYKCKVSNKALPAPIEKTISKAKGQPREPQVYTLPPSREEMTKNQVSLTCLVKGFYPSDIAVEWESNGQPENNYKTTPPVLDSDGSFFLYSKLTVDKSRWQQGNVFSCSVMHEALHNHYTQKSLSLSPGGGGGSGGGGSGGGGSGGGGSQVQLVQSGAEVKKPGASVKVSCKASGYTFAGFEMHWVRQAPGQGLEWMGAIDPKTGGTDYNQKFKDRVTMTRDTSISTAYMELSRLRSDDTAVYYCARDLGYFDVWGQGTLVTVSSGGGGSGGGGSGGGGSGGGGSDIQMTQSPSSLSASVGDRVTITCRASQDIRSNLNWYQQKPGGAVKLLIYYTSRLHSGVPSRFSGSGSGTDYTLTISSLQPEDFATYFCQQSEKLPRTFGGGTKVEIR light: DIQMTQSPSSLSASVGDRVTITCKASQNVYKKLEWYQQKPGKVPKVLIYHTNILQTGVPSRFSGSGSGTDYTLTISSLQPEDVATYYCYQWNSGPTFGGGTKVEIKRTVAAPSVFIFPPSDEQLKSGTASVVCLLNNFYPREAKVQWKVDNALQSGNSQESVTEQDSKDSTYSLSSTLTLSKADYEKHKVYACEVTHQGLSSPVTKSFNRGEC",,binds,~0.1,binds
"Ly347 (bispecific antibody, human IgG1, kappa, Anti-PD-L1/CD137: Ly076 heavy chain; Ly076 light chain fused to Ly1630 scFv (VH-VL)) heavy: QVQLVQSGAEVKKPGASVKVSCKASGYTFTDFWMSWVRQAPGQGLEWMGQIYPNTGTTHSNEKFKGRVTMTRDTSTSTVYMELSSLRSEDTAVYYCARSYHISTTPNWFAYWGQGTLVTVSSASTKGPSVFPLAPSSKSTSGGTAALGCLVKDYFPEPVTVSWNSGALTSGVHTFPAVLQSSGLYSLSSVVTVPSSSLGTQTYICNVNHKPSNTKVDKKVEPKSCDKTHTCPPCPAPELLGPSVFLFPPKPKDTLMISRTPEVTCVVVDVSHEDPEVKFNWYVDGVEVHNAKTKPREEQYNSTYRVVSVLTVLHQDWLNGKEYKCKVSNKALPAPIEKTISKAKGQPREPQVYTLPPSREEMTKNQVSLTCLVKGFYPSDIAVEWESNGQPENNYKTTPPVLDSDGSFFLYSKLTVDKSRWQQGNVFSCSVMHEALHNHYTQKSLSLSPG light: DIQMTQSPSSLSASVGDRVTITCKASQNVYKKLEWYQQKPGKVPKVLIYHTNILQTGVPSRFSGSGSGTDYTLTISSLQPEDVATYYCYQWNSGPTFGGGTKVEIKRTVAAPSVFIFPPSDEQLKSGTASVVCLLNNFYPREAKVQWKVDNALQSGNSQESVTEQDSKDSTYSLSSTLTLSKADYEKHKVYACEVTHQGLSSPVTKSFNRGECGGGGSGGGGSGGGGSGGGGSQVQLVQSGAEVKKPGASVKVSCKASGYTFAGFEMHWVRQAPGQGLEWMGAIDPKTGGTDYNQKFKDRVTMTRDTSISTAYMELSRLRSDDTAVYYCARDLGYFDVWGQGTLVTVSSGGGGSGGGGSGGGGSGGGGSDIQMTQSPSSLSASVGDRVTITCRASQDIRSNLNWYQQKPGGAVKLLIYYTSRLHSGVPSRFSGSGSGTDYTLTISSLQPEDFATYFCQQSEKLPRTFGGGTKVEIR",,binds,~0.2,binds
